Measurements published in article PMC4840320 (Scientific Reports, 2016).
Changes are numbered by the printed parent chain. In names and notes the source's numbering stands.

B1: His-tagged ARL-3 (natural protein, C. elegans, UniProt O45379 1-184, looked up)
chain: MGLIDVLKSFKSPSGREIRILLLGLDNAGKTTILKQLSSEDVQHVTPTKGFNVKTVAAMGDIRLNVWDIGGQRSIRPYWSNYYENIDTLIFVIDSNDKKRFDEMNIELGELLDEEKLRKVPVLIFANKQDLVTAASSEEITRKLNLDLLRDRTWHIQACSALKNEGINDGITWVASNLKPASKK
notes: ARL-3, small GTPase of C. elegans, wild type; the methods speak of full-length and/or truncated cDNAs, and no truncation of ARL-3 is named; also called His-ARL-3; source: E. coli BL21, purified (His resin); not shown: His, N-terminal, kept
B2: ARL-3 dominant active (DA, Q72L) variant, recombinant (natural protein, C. elegans, UniProt O45379 1-184, looked up)
chain: B1 chain with Q72L
notes: ARL-3, C. elegans, dominant active variant Q72L; also called ARL-3 DA; source: E. coli BL21, purified (His resin or glutathione sepharose)
B3: ARL-3 dominant negative (DN, T31N) variant, recombinant (natural protein, C. elegans, UniProt O45379 1-184, looked up)
chain: B1 chain with T31N
notes: ARL-3, C. elegans, dominant negative variant T31N; also called ARL-3 DN; ARL-3DN (T31N); source: E. coli BL21, purified (His resin or glutathione sepharose)
B4: GST-fused full length ARL-13 (FL) (natural protein, C. elegans, UniProt H2L0N8-2 1-367, looked up)
chain: MTEKSWFETIFCCCCHRTPIIRREIKLGCFGIGSAGKTTFLKVLKGEDPRDLLRTNGFSTVKMEYDETFHLTIYDVGGDKGIRGIWSNYYAEVHGIIYVIDYSTDETFTESIEALHSLTSNPHVQKKPIFLLLNNQNNREFDDVEISNETKIQAGQHKIVLFSHFNKYNGYLDNIKSATLTVMARAKKDRNEYQEQFVRFIDSISEHYVELSEGVKTAELALRIRQEEAKEQRRLMQMKVEHDALKADVAGLELRNQPPVQPPIPPDPPSDPKSASVHIEESPPMSLASSTIPSDIIQSTPETGTPRDPVKISQTSTKPVSPESNSVKEEPTIILKDNYFLPPKAPGRQYSRIQRIQNVLNNRVVPK

Legend:
[1] = biological target: T1, UNC-119, recombinant, as used in the GST pull-downs with ARL-3 and its variants (C. elegans, UniProt Q10658 1-219); experiment: pull-down; GST pull-down: His-tagged protein incubated with GST-tagged protein immobilised on glutathione sepharose; 25 mM Tris-HCl pH 7.4, 150 mM NaCl, 0.5% Triton X-100, 1 mM DTT, 10% glycerol, 4 hours at 4 °C; six washes; anti-His immunoblot; conditions: both partners purified
T1 construct: if it carried the His tag it is the same construct as m6 and ARL-3 was GST-fused; source: E. coli BL21, purified (His resin or glutathione sepharose)

[2] = biological target: B1; experiment: cell-based or functional assay

T1 sequence (Q10658 whole entry, change not shown, the tested form may be a part): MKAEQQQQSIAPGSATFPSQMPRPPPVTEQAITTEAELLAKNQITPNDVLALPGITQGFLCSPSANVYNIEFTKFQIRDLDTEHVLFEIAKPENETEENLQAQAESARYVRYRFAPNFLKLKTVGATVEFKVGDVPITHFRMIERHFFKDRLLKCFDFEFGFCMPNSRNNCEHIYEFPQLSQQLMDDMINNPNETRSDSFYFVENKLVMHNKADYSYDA

Row | Binder | binding result [1] | mantGDP release from GDP-preloaded ARL-3 (in vitro GEF assay), ARL-13 from one-tenth molar (~2 fold) to a 1:1 molar ratio [2] [fold]
1 | B1 | binds | –
2 | B2 | binds | –
3 | B3 | binds | –
4 | B4 | – | ~7
